Measured values from the Immune Epitope Database (IEDB).

These sequences were tested against HLA-A*33:03 (assay: IEDB peptide-MHC binding, purified MHC/competitive/fluorescence; filed as Kd, often an IC50 or EC50 that approximates it; ≥ and ≤ were set here for values at or beyond the usual limits of such assays). Settings: source organism: Homo sapiens.
Work on ETFPQRHMR yielded a Kd of 3.14 nM.
For EFFSINAQR, the Kd was 0.28 nM.
With MLYGLIHAR the Kd was 3.45 nM.
In the case of ETHFPFAIR, the Kd is reported as 2.11 nM.
In the case of EFVDLYVPR, the Kd is reported as 5.11 nM.
Work on NTNDFVTLR yielded a Kd of 4.87 nM.
For ETYLHRIGR, the Kd was 1.69 nM.
Work on EVASVWVER yielded a Kd of 11.5 nM.
EVINDYHFR gave a Kd of 5.33 nM.
SYIDRLAPR was tested, and the Kd was 1.43 nM.
EFQDFTVPR gave a Kd of 1.78 nM.
Work on DVFPGPSFR yielded a Kd of 2.18 nM.
In the case of TTTEHRFFR, the Kd is reported as 1.99 nM.
Work on FTWNINHAR yielded a Kd of 3.22 nM.
NTLQLHRYR gave a Kd of 3.4 nM.
With YVFPKPFNR the Kd was 1.43 nM.
In the case of ELFDFLHAR, the Kd is reported as 1.68 nM.
Sequence ETYKYLYGR has a Kd of 1.79 nM.
YVQRFHYSR was tested, and the Kd was 1.37 nM.
Sequence EVFEYIIFR has a Kd of 4.69 nM.
With EFFIPRVGR the Kd was 1.47 nM.
Sequence ETMPSPYGR has a Kd of 3.1 nM.
ETVERIFRR gave a Kd of 1.77 nM.
In the case of EVKESPFFR, the Kd is reported as 3.63 nM.
In the case of DTYLHRVAR, the Kd is reported as 2.19 nM.
Work on MTILQTYFR yielded a Kd of 3.19 nM.
DIYNHRFHR gave a Kd of 2.4 nM.
QLYPRNFLR gave a Kd of 3.85 nM.
With DAQRLHYYR the Kd was 1.37 nM.
Sequence STARHLYLR has a Kd of 0.92 nM.
Sequence EVYDIAFSR has a Kd of 1.29 nM.
With FVFDRPVHR the Kd was 0.95 nM.
VVAAVRWRR gave a Kd of 3.64 nM.
